From article PMC6486635, “IMP1 KH1 and KH2 domains create a structural platform with unique RNA recognition and re-modelling properties” come the findings set out here.

By Kd is commonly meant the equilibrium constant for the complex coming apart.

Data set [1] deals with T1, IMP1 KH1KH2DD (Homo sapiens, UniProt Q9NZI8 194-369, K294D;E295D). As to the kind of experiment: ITC; 10 mM sodium phosphate pH 7.4, 50 mM NaCl; ITC 25 C with 2 mM TCEP; BLI 30 C with 0.5 mM TCEP and 0.5 mg/ml BSA; NMR 0.5 mM TCEP; RNAsin 40-100 u/ml. As to conditions: protein: recombinant; tags: 6xHis-GST removed by TEV. (In general: ITC needs no label: the signal is the heat of the interaction.)
T1 sequence (Q9NZI8 194-369 K294D/E295D): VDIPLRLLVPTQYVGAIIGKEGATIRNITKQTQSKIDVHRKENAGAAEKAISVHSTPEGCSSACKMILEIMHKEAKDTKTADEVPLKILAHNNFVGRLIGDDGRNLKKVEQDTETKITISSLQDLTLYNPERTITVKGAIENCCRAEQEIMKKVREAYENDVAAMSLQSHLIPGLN

The next data set deals with IMP1 KH1DDKH2 (Homo sapiens, UniProt Q9NZI8 194-369, K213D;E214D). The description is as above. As to conditions: protein: recombinant; tags: 6xHis-GST removed by TEV.
IMP1 KH1DDKH2, sequence (Q9NZI8 194-369 K213D/E214D): as the sequence (Q9NZI8 194-369 K294D/E295D) above, with K20D, E21D, D101K, D102E counted along it
In the next data set the target is IMP1 KH1KH2 wild type (Homo sapiens, UniProt Q9NZI8 194-369). As to the kind of experiment: BLI; 10 mM sodium phosphate pH 7.4, 50 mM NaCl; ITC 25 C with 2 mM TCEP; BLI 30 C with 0.5 mM TCEP and 0.5 mg/ml BSA; NMR 0.5 mM TCEP; RNAsin 40-100 u/ml. As to conditions: protein: recombinant; tags: 6xHis-GST removed by TEV; label: 5'-biotin.
IMP1 KH1KH2 wild type, sequence (Q9NZI8 194-369): as the sequence (Q9NZI8 194-369 K294D/E295D) above, with D101K, D102E counted along it
Data set [2] concerns the target T1, IMP1 KH1KH2DD. The data set is described as above. As to conditions: protein: recombinant; tags: 6xHis-GST removed by TEV; label: 5'-biotin.

B1: UCCGC (ssRNA)
RNA: UCCGC
For B1, the Kd in the data set with IMP1 KH1KH2DD [1] amounted to 800 ± 40 nM.

B2: UCUGU (ssRNA)
RNA: UCUGU
On to B2, for which the Kd in the data set with IMP1 KH1KH2DD [1] came out at 2600 ± 80 nM.

B3: UACGU (ssRNA)
RNA: UACGU
As to B3, the Kd in the data set with IMP1 KH1KH2DD [1] turned out to be 25000 ± 1000 nM.

B4: UCCCU (ssRNA)
RNA: UCCCU
As for B4, the binding result with IMP1 KH1KH2DD [1] is given as “no binding”.

B5: UCCCG (ssRNA)
RNA: UCCCG
Regarding B5, in the data set with IMP1 KH1DDKH2, the Kd is 100000 ± 4000 nM.

B6: UUCCG (ssRNA)
RNA: UUCCG
Take B6: the Kd with IMP1 KH1DDKH2 is 124000 ± 15000 nM.

B7: UCCGU (ssRNA)
RNA: UCCGU
Regarding B7, in the data set with IMP1 KH1KH2DD [1], the Kd was found to be 500 ± 10 nM.

B8: UUCGU (ssRNA)
RNA: UUCGU
Regarding B8, the Kd with IMP1 KH1KH2DD [1] worked out at 25000 ± 2000 nM.

B9: UCAGU (ssRNA)
RNA: UCAGU
As to B9, the Kd with IMP1 KH1KH2DD [1] was determined as 1000 ± 30 nM.

B10: UGCGU (ssRNA)
RNA: UGCGU
For the molecule B10, the Kd in the data set with IMP1 KH1KH2DD [1] stood at 26000 ± 2000 nM.

B11: MYCRNA (ssRNA)
RNA: CACAGCAUACAUCCUGUCCGUC
On to B11, for which the Kd stood at 46 ± 8 nM with IMP1 KH1KH2 wild type and 1760 ± 200 nM with IMP1 KH1KH2DD [2].
